This note sets out measurements from the NTF2 design screens of Basanta et al. (2020).

The data set is described as follows: protease stability score; higher = more stable; yeast display proteolysis, trypsin and chymotrypsin.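 Also: relative to predicted unfolded state with 0 unfolded-like and 1 meaning tenfold more protease.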
In turn, “SEDEHLAERMVHLWNKILLTGNEEIMEKLFDPNTRVIVGDKEYVGREVFLHLVKEIRKRADHIEIRIQHLEVQGDKVHLHGILIFRQGDKSDEQRVHLHSEKVNGRWFLREFRFE” came in with a protease stability score of 2.3.

As for “SEDEHLTRNLAKDTIRALETGDEDRLNELFDPDVRLEIGDFMSHGRKSFTDTLRRFKNLTLHIHDMRVIGDKVHIDGEVDWNGQRRKTEIIIVIVDGKLKQIHYNIH”, the protease stability score came out at 0.874.

“SEDEHMFELARHILEETDRTGDWRELEKNVDPNARLRVDGQRQHGRDSVRLLIERADHIHHRRLETFTVVNGVIHFEMHVHVIINGVPYEVEVHMHALKVDGKWIIKKVEMD” had a protease stability score of 0.479.

As to “SEDEHNAEIAIKIWLDTIRTGDWHKIENMADPNTRIDIGDKHFHGREEIVRLYIELVEKFPGMTFHVREVDVVGDKVDIHSHVVVGDKTFNLTIIITKVNGRWLLKKVRMESH”, the protease stability score was 2.67.

In turn, “SEDEHQSKLALELLQESSYTGDWKTSQDLMDPHARFVIGDKYVHGMEEVSRMMEEIRIEEIHIRKIHTVGNKIEIKGEIRIRIGDKHTSTEVEWVASKVNGRWLLEELVVH” came in with a protease stability score of 0.511.

Consider “SEDEHRAEQLLRLWRETYTTGDERVMKELFDPNVRFDFNGREFIGREEAIRAFHEEVRHLGVDHVEIKEVEYRVINGQVHVHIESHFEVDGRRHRVHIESIVRKVNGKWRVEEVRIEIR”, for which the protease stability score was 0.969.

In turn, “SEDEHRAREVVHIFNEAIDTGDFQSLMDMMDPNVRLIFENHHTIGREEALKVINRFDHVRNHHVRWRHVHHVNGRIIDHTEVDIVIHINGQIIRETTERDITIEKVNGRWLIHQIEIR” registered a protease stability score of 1.14.

The sequence “SEDEHRSHLLLKEFEHLMRTGNEEEIERNLDPHTRLEFNGREFHGREDAREVWRRFGFKHLDSLRFHHLEIQGDKIIIDSRTEMLFNGVHTITRVEFHALKIDGRWLSTELRIG” displayed a protease stability score of 0.919.

“SEDEHRSRHDAELFLKFVKTGDEHHLQRFADPNVQFHQGEWEDHGRESLREQFRKFMEDLGADHSELESIRVHIQGDKMTVHIHVTFRVGDKTIKSTWRFYITKINGRWTMERMDVELH”: the protease stability score amounted to 0.629.

As for “SEDEHSFKMAIDLWEEVSRTGDEKDLRELIDPHVRVEYGDKHHVGWDRFIKVFHEIRFHHIKVRDHRIIGDKLHMNIEVHGEYNGQRVTIETHVVMRKIDGRWFTETMQID”, the protease stability score was 1.22.

On to “SEDEHSWRLAREEFRKTNETGNEEDLSRLFDPHVRIDINGREIHGRDEASELFHKLGIDHIRWRVKRVKIFDGRMENRGELILIFNGREHRYDITVISSKIDGQWSVESMHYK”, for which the protease stability score was found to be 0.534.

As for “SEDEHYVRHAIKLWMDSHLTGDEHTLTQLLDPNVRTDFNGREFHGREEASKWTKHLLERMGIKVSDVHLRRLDVQGDKAISHTELIIHFNGVDLSKEVHIDIMKVDGQWMIRDLTII”, the protease stability score came to 0.613.

Take “SEDEIARHILHKMMTGDEDSFEELLDPNARLIVGNKHSHGRERVIEDWKRDLELAGFKHSEVKRIHFQGEKSHVHGHINVNGKEYRVLFILVIVNGRLKEVELHVTDEREEKYLHRTWE”: the protease stability score amounted to 0.007.

Sequence “SEDEIAVKKFMQRWIEAVHTGNEDVLTELADPNYRIIFEGRNLHGMDQILHDVRRVDVLEERMHVTSVDSQGDKIHIHGTLQVHFHVGDKQIDIHTQVTWHMLKIDGVWILKKVEIH” had a protease stability score of 1.39.

Sequence “SEDEKASKEAFELWRRVDETGDEHSLLRLLDPHVRLHIGDKHLHGREEVKRLLEELGVSRVHFDLRTIRVINGKVFVHGDFEVGDKRTHSEIVALKVDGRWINESIHIR” displayed a protease stability score of 0.806.

As for “SEDEKAVEDLFKLWVRDLVTGDEDSINKLLDPNARVEIGDKEFHGMEDVVRFLLHIRFKHVEMHDMRVQGNKATLHVDIRGVVDGRDRELDTILIIEKVNGKWYLHHQKIN”, the protease stability score was determined as 1.48.

Turning to “SEDEKDAEKMSERFLHMFITGNEELFRDLADPHTRLKVNGVHNHGREHVEILNKEFLTRLGVNYYEEHDVRYRVIDGVVFIDIVGHMNIDGQETEVTLHWRVLKVNGRWRITEVDIRRH”, the protease stability score turned out to be 1.64.

Sequence “SEDEKDAHEAVKRMVHFSETGDWREIEELADPHYRIDWNGRTHIGREEFTEITKRLGINVIRHRHITIINGRIHVHGEVHFNGQSTEVEFIITKINGKWRLHEMIIR” had a protease stability score of 0.747.

For the sequence “SEDEKDARIAVKLLWEIFQTGDEDLFTKFIDPNTRSEINGREIHGREDVYRLMEELGIKVIRVHDVKTQGDKVHLTMEVTVNGRRHRVHFIFEKIDGRWIARHEKVE”, the protease stability score came out at 1.45.

The sequence “SEDEKDVKDAFDIWYESHITGNEEYARKMADPDTLSIVNGVRIHGMETWMHFLLKHQKELGIDVYTTDIHHVEVFDGRVKVDLRMREIFNGRHLEFETEVISEKIDGRWHVRSIRIT” had a protease stability score of 1.36.

The sequence “SEDEKEAKETQSIYSHAVQTGDEHHLKELADPNVRIEINGVEYVGWEQLKDMLERFKNVRIKVSVRRVHQIGDKIHLNTELEEDVDGVRRVIDVRVIIWKINGRWRFKTFESQ” gave a protease stability score of 1.41.

“SEDEKEDHELSRHVIETLKTGDWELLSELADPHVRLKVNGKTYIGRELFTETVRRLLDRFKNMTLKIEDIKTVDGRLEIHIFLIVGDKFFELIIIATKVDGRWFEEEMHVHHS” returned a protease stability score of 0.915.

“SEDEKEMKQALEHWLELLTTGNEEENEKLADPDVRLNFNGKEFHGWKLYREFLSRIKNATIRIREVRVVNGKVTVISELRIGDKVFEVQIHLKKVNGKWYVEEEHIH” had a protease stability score of 1.61.

“SEDEKENREWKRLLIEAHMTGDEHFLSRQLDPNVLVIVNGQEKVGREEAERELKEWLDKVKGLRIRRFDTESEEFVDGRLHSNLKLDGIINGRRTELDIHVISVKIDGQWQIRQIFFV” returned a protease stability score of 1.44.

Sequence “SEDEKERDMIAELFVRSLVTGDEELIKDLIDPNVKLDIGDKSRHGRENFTRQILHFGVDHVDVTEMHVQGEKVNLRGNWNINGVDLDVINYVTKVNGKWLLTRVEIK” registered a protease stability score of 1.14.

Sequence “SEDEKFARHVVKLWEDNYKTGNFEELLHMMDPHVKIKVNGRELHGWEELEKILTEFHERFRNQKLDIKLRDLKIQGNYVHADMELTIHYNGQEHREQVHLVVRKVNGRWEIEKITFD” registered a protease stability score of 0.813.

Turning to “SEDEKFLQIALHLMMHWINTGDEDFLREMADPHVRLHDGDKEHHGWKVIEHLFHYYGVDHITVKRYTIIGDKVKTDGELRVGDKRFRILYETVKIDGRWHVHKIEIR”, the protease stability score was determined as 1.43.

“SEDEKFWEDISKIVLDLLRTGDWELSERYADPNVKVHLVIDGQELDLHGREHVVNLVRKLGADHVETEDHKFHYQGNKIRINIHGHLNINGKVQHVEFTEIWVKVDGRWYSQHHEIVFR” registered a protease stability score of 1.55.

“SEDEKHAHEFLEQFIRDWVTGNEESFELMLDPDMRLNINGRDFHGREEAVRHFSHRFKQLGVKHIELKEVDIDVFDGKVHSTYDGVERFNGQELRVRIEVEVLKINGQWYLHRVVVKIE” returned a protease stability score of 2.27.

“SEDEKHFREALEELHRALETGDWKRLDELLDPNTRLHINGVDLIGREMVSRFYRELVEHLGINHIELRVHHIRIIGDKVEMDSELIIDVGDKHIRIDQKLDAKKVDGRWISHVESHR” had a protease stability score of 2.05.

As to “SEDEKHSEHAIHLIEHSMHTGDEKTLRDNIDPHVRVHINGRDVIGRELWMEILRRDLEELGVERVDFKTHHVEVFNGRMNIDGILTQGDKRVKVQIHYTKINGRWILEELIIR”, the protease stability score is 0.841.

In turn, “SEDEKIAEHLMHEISRSTQTGDEEMSRRLMDPNVRIDINGKQIHGWETWQKEVERVDHSHSRFQLRDVRSQGNYLDARGEFHLDLHINGRTVHIVYDVTFIILKIDGRWFLHSIKVR” came in with a protease stability score of 0.519.

Consider “SEDEKIAHKVHRLMFESLRTGDEEFLRRMLDPNARFVVNGQDLVGMEFLDHTLREMRVREIRWRSSDVEIQGDKIINHSKVHSRFDQGEKETHVEVHIIIIYTKIDGQWHVKSVIIEYK”, for which the protease stability score stood at 1.12.

The sequence “SEDEKIAQRLLDLLLESFITGDEQMDRELLDPNVKMEVGDKELHGREEALEWFTRVAKRVDHMRFTLTHMDIIDGRIIIQGRVEQFFNGRKVTTRYNLLVLKIDGRWRIEEIRYH” yielded a protease stability score of 1.42.

On to “SEDEKIARDVIKLVLHAMRTGDEELFLKLADPNVRILFDGKELHGREEVIRFRERIDHFDIKRFDLRDMKIINGVMHVDVEIDGVLEVDGVRERRIEKVRWVVLKVDGRWRTHSIEIV”, for which the protease stability score was 2.69.

Take “SEDEKIASEIAEYVERAFRTGNEEEWERYADPHVRTDVNGQDLIGRRTLEEMFHRIDHLHDSRMEIHDVKLVNGRIISDVRLHLDSHYNGVRFEWEHEVRIQVDKINGRWRVKFIEIR”: the protease stability score came out at 0.428.

Sequence “SEDEKIHREMSKIMLEDLFTGDWKSLRDLVDPNVRIIVDGREFHGREYYSRELIEELLKFKNARFDIEHVELRIYDGRLRTLIHMRVNIDGVEHWVIVEVDFTKIDGRWYVEEIRVEVR” displayed a protease stability score of 1.33.

“SEDEKIMEEASRLFMHLFLTGDEETLMRLADPNTRIVFNGQDHHGREEWTKVLRDLGIKHSHIEHVNLRTQGDKVDLNVHVNVHIDGRTRRYLIIVHATKINGRWEIKEIQVHEH”: the protease stability score stood at 0.989.

“SEDEKISEEALRRWVHHNRTGNEQDYVRMADPDTKIEIGDKEFHGREEFVKLARDYGFKHYHLKDNDVIGDKIRIDGIVEFNGQRWEMILYFVKYDGRWSIKSIHIK” gave a protease stability score of 1.45.

Regarding “SEDEKITKEATRIFLENLHTGDERTMDDNLDPNVLLIINGVELVGREFIVTWLKELRLKRQDIKSIDMRLINGVAHVFMDIHVEGNYNGRDRRSDEELRYIIRKIDGRWSIESVEIHIR”, the protease stability score is 1.22.

“SEDEKKRDESLELILRAILTGDEDLLKTLADPHVMFDWNGKELHGMNVFIHWVRHMGVDHRNIESKDKRIQGDKVRLDMTSNEHAENHEHRYRVELIIKKIDGRWIIKEFIIR” registered a protease stability score of 1.36.

For the sequence “SEDEKLAEDFFELLRHLIHTGDENTLREFADPRTRVQINGREIHGWDESARHIMHETLRFKNMRINLHLKDRRVIGEKMELDVKVQLHFNGQTEEFDFILYVEKVNGKWVIKSIHVH”, the protease stability score is 1.26.

For the sequence “SEDEKLAHLVTELMTHSDRTGDERILEHLLDPNTRVIINGVSYHGMEAYRHMVRHIRFHNWEIHDVDSVNGQVHVDSRAEGNIDGVRDILNTWIISDKYDGRWIISEIEII”, the protease stability score stood at 0.53.

In turn, “SEDEKLDRDLHDLFRKLWETGDFDSLLKLADPTARFIYDFENHSEEEHGMHVYLKRLTERLRFFKGLQIEVDVIHVVNGVSHFELTMHIDGVRIKVEIEVITIDGRVREMRVRDN” yielded a protease stability score of 0.738.

“SEDEKLFRLSIEIYLRVSRTGDEHMAHEYADPHVRLRIGDKEFHGREEFIKWVNELRVEELRLKEVRVIGDKAHLRTEVHTYIGDKEINYEMEIHQTKIDGKWFLREMKLK” returned a protease stability score of 0.486.

As to “SEDEKLMEHAFRQLLRDLETGDWHSFHHLADPTVKLDIDGREIHGRESATRVLEELWRKFGVTRVESELHSMHSQGDKLRVESKMNFNGVEYSVIIIMIKIDGRWLLHSENHK”, the protease stability score was determined as 1.56.

With “SEDEKLVHHAANLILEALWTGDEDTLREMVDPNVRTHINGREFHGWEESIRIILHHLNRFKNVRWHLHDQRVYGEKSHNDVRTNVDGVTLEVILILIVVDGRIRSISIEIR”, the protease stability score was 2.68.
